Results as given in article PMC7076939.

How the values were obtained:
[1] = test system: ATTO-MBD2 (MBD2FLsc labeled with ATTO 565) (human); experiment: fluorescence anisotropy; details: 24 nM DNA, text rounds to 25±5, 5-methylcytosine at one CpG, Anisotropy: 20 mM HEPES, 50 mM NaCl, 3 mM MgCl2, 3 mM EDTA, pH 7.5, 24 nM DNA, temperature not given, AFM: 20 mM HEPES, 10 mM Mg(OAc)2, 100 mM NaCl
[2] = test system: MBD2FLsc (single-chain MBD2 with scMBD2-GATAD2A), unlabeled (human); experiment: fluorescence anisotropy; details: 24 nM DNA, text rounds to 12±4, 5-methylcytosine at one CpG, Anisotropy: 20 mM HEPES, 50 mM NaCl, 3 mM MgCl2, 3 mM EDTA, pH 7.5, 24 nM DNA, temperature not given, AFM: 20 mM HEPES, 10 mM Mg(OAc)2, 100 mM NaCl
[3] = test system: MeCP2 (human); experiment: fluorescence anisotropy; details: 24 nM DNA, text gives error 4.4, 5-methylcytosine at one CpG, Anisotropy: 20 mM HEPES, 50 mM NaCl, 3 mM MgCl2, 3 mM EDTA, pH 7.5, 24 nM DNA, temperature not given, AFM: 20 mM HEPES, 10 mM Mg(OAc)2, 100 mM NaCl
[4] = test system: ATTO-MBD2 (MBD2FLsc labeled with ATTO 565) (human); experiment: nanochannel single-molecule fluorescence; details: Anisotropy: 20 mM HEPES, 50 mM NaCl, 3 mM MgCl2, 3 mM EDTA, pH 7.5, 24 nM DNA, temperature not given, AFM: 20 mM HEPES, 10 mM Mg(OAc)2, 100 mM NaCl

FAM-labeled dsDNA with one methylated CpG
Kd [1]: 24.5 nM | Kd [2]: 11.9 nM | Kd [3]: 7.5 nM

methylated lambda DNA
binding signal (fold bound vs unmethylated) ([4]; CpG 5-methylcytosine): 10

unmethylated lambda DNA
binding signal (fraction of methylated) [4]: 0.1
